Experiment [1] concerns the target T1, human IgG1 (human, UniProt P01857-1 1-330 = IgG part).
T1 construct: Calbiochem; human plasma IgG1 in anisotropy studies, myeloma-derived (cat. 400120) in batch/column studies; also called hIgG1
Description: fluorescence anisotropy; pH 5.7, 0.15 M NaCl. How it is done:
(§1) All measurements were performed in 384 well microplates with 20 nM fluorescein-labeled peptide and various concentrations of the IgG isoform in a volume of between 10 and 20 μl using a Tecan Polarion fluorescence polarization plate reader. All binding buffers included 0.01% (v/v) Tween 20 to prevent peptide adsorption to the microplate. The binding mixture was equilibrated for 10 minutes in the microplate at 30° C. prior to performing the measurement.
(In fluorescence polarisation assays a small probe gives low polarisation when free and higher when bound to something large.)

Experiment [2] has as its target T2, human IgG4 (human, UniProt P01861-1 1-327 = IgG part).
T2 construct: Calbiochem; plasma IgG4 in anisotropy studies, myeloma-derived (cat. 400126) in batch/column studies; also called hIgG4
As to the kind of experiment: fluorescence anisotropy; pH 7.4, 0.01 M Tris-HCl. On the procedure:
as §1

Experiment [3] has as its target T1, human IgG1. As to the kind of experiment: fluorescence anisotropy; pH 7.4, 0.01 M Tris-HCl. On the procedure:
as §1

In experiment [4] the target is T3, human IgG2 (human, UniProt P01859-1 1-326 = IgG part).
T3 construct: Calbiochem; plasma IgG2 in anisotropy studies, myeloma-derived (cat. 400122) in batch/column studies; also called hIgG2
Description: fluorescence anisotropy; pH 7.4, 0.01 M Tris-HCl. On the procedure:
as §1

For experiment [5], the target named is T1, human IgG1. Description: fluorescence anisotropy; pH 5.7, 0 M NaCl. How it is done: as §1
Experiment [6] concerns the target T2, human IgG4. As to the kind of experiment: fluorescence anisotropy; pH 5.7, 0.01 M Tris-acetate. On the procedure:
as §1

Experiment [7] concerns the target T1, human IgG1. The description is as above. On the procedure:
as §1

In experiment [8] the target is T3, human IgG2. The experiment is described as above. On the procedure: as §1
Experiment [9] deals with T1, human IgG1. Description: fluorescence anisotropy; pH 7.4 PBS, 15% ethylene glycol. How it is done:
as §1

Experiment [10] has as its target T1, human IgG1. Description: fluorescence anisotropy; pH 5.7, 15% ethylene glycol. How it is done:
as §1

Positions of bridges follow the written chain, without caps; N, C: chain ends.

In general, Kd refers to the equilibrium constant for the complex coming apart. A low value points to a tighter complex.

T1 sequence (P01857 other isoform, or with tags, fused parts or gaps): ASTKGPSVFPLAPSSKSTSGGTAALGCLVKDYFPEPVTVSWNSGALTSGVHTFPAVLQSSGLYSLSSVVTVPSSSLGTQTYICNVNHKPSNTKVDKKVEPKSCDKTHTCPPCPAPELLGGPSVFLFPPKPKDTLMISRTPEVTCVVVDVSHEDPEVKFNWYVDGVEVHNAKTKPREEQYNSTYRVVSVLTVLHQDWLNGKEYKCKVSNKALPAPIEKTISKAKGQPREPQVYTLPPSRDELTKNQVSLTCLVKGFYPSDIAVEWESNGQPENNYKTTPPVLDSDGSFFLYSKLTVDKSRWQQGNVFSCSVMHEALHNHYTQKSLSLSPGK
T3 sequence (P01859 other isoform, or with tags, fused parts or gaps): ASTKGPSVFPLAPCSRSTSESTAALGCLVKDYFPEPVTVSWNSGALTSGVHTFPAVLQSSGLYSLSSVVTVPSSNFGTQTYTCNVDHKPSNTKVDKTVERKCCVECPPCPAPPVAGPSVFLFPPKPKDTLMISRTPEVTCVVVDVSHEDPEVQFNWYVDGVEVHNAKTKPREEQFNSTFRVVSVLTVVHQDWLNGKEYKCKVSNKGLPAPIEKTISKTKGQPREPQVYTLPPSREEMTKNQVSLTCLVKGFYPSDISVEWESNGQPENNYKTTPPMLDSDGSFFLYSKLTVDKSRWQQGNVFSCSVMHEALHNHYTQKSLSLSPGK
T2 sequence (P01861 other isoform, or with tags, fused parts or gaps): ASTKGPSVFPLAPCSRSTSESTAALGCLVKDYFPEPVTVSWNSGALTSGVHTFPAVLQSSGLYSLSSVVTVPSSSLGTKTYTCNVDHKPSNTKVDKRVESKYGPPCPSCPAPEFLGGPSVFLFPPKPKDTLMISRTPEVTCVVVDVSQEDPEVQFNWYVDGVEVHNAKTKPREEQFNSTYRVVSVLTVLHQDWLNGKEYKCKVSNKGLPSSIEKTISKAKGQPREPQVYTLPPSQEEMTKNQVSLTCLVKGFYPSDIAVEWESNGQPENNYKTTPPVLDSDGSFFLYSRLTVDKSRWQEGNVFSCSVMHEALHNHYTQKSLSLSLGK

B1: DX249 (peptide)
peptide: Ac-GDDHMCVYTTWGELIWCDNHEPGPEGGGK-NH2
modifications: disulfide 6-17 (inferred)
notes: Synthetic disulfide-cyclised peptide
As to B1, the Kd with human IgG1 [1] stood at 840 nM; with human IgG4 [2] it was 1900 nM; in the experiment with human IgG1 [3] it was 400 nM; with human IgG2 [4] it was 1800 nM; with human IgG1 [5] it was 74 nM; with human IgG4 [6], 300 nM. For the same molecule, the Kd in the experiment with human IgG1 [7] is 74 nM; in the experiment with human IgG2 [8], 68 nM; with human IgG1 [9], 3600 nM; with human IgG1 [10] it was 80 nM.

For the origin of these results see US20030199671A1 (published 2003).
